In patent US8290713 (LONZA BIOLOGICS, dated 2012):
Non-standard residues stand in square brackets, D forms with d.

Biological target: α-synuclein (UniProt P37840 1-140)
Assay: cell-based or functional assay
Also: test concentration or dose not given here.

Row | Binder | % decrease in ThT fluorescence [%] | % decrease in rate of aggregation [%] | % increase in Lag phase [%]
1 | Ac-[dH][dH][dT][dV][dV][dA]-NH2 (SMILES CC(=O)N[C@H](Cc1c[nH]cn1)C(=O)N[C@H](Cc1c[nH]cn1)C(=O)N[C@@H](C(=O)N[C@@H](C(=O)N[C@@H](C(=O)N[C@H](C)C(N)=O)C(C)C)C(C)C)[C@H](C)O) [ZP-0180] | 19.8 | 18.4 | 30.3
2 | Ac-[dH][dH][dT][dT][dV][dY]-NH2 (SMILES CC(=O)N[C@H](Cc1c[nH]cn1)C(=O)N[C@H](Cc1c[nH]cn1)C(=O)N[C@@H](C(=O)N[C@@H](C(=O)N[C@@H](C(=O)N[C@H](Cc1ccc(O)cc1)C(N)=O)C(C)C)[C@H](C)O)[C@H](C)O) [ZP-0194] | 11.6 | 7.7 | 38.8
3 | Ac-[dH][dH][dV][dV][dV][dA]-NH2 (SMILES CC(=O)N[C@H](Cc1c[nH]cn1)C(=O)N[C@H](Cc1c[nH]cn1)C(=O)N[C@@H](C(=O)N[C@@H](C(=O)N[C@@H](C(=O)N[C@H](C)C(N)=O)C(C)C)C(C)C)C(C)C) [ZP-0159] | 19.8 | 18.6 | 36.6
4 | Ac-[dH][dH][dT][dL][dV][dV]-NH2 (SMILES CC(=O)N[C@H](Cc1c[nH]cn1)C(=O)N[C@H](Cc1c[nH]cn1)C(=O)N[C@@H](C(=O)N[C@H](CC(C)C)C(=O)N[C@@H](C(=O)N[C@@H](C(N)=O)C(C)C)C(C)C)[C@H](C)O) [ZP-0186] | 30.7 | 29.7 | 16.1
5 | Ac-[dH][dH][dV][dL][dV][dA]-NH2 (SMILES CC(=O)N[C@H](Cc1c[nH]cn1)C(=O)N[C@H](Cc1c[nH]cn1)C(=O)N[C@@H](C(=O)N[C@H](CC(C)C)C(=O)N[C@@H](C(=O)N[C@H](C)C(N)=O)C(C)C)C(C)C) [ZP-0160] | 8.8 | 10.5 | 36.5
6 | Ac-[dH][dH][dT][dL][dV][dA]-NH2 (SMILES CC(=O)N[C@H](Cc1c[nH]cn1)C(=O)N[C@H](Cc1c[nH]cn1)C(=O)N[C@@H](C(=O)N[C@H](CC(C)C)C(=O)N[C@@H](C(=O)N[C@H](C)C(N)=O)C(C)C)[C@H](C)O) [ZP-0181] | 22.8 | -1.2 | 29.4
7 | Ac-[dH][dH][dT][dI][dV][dK]-NH2 (SMILES CC[C@@H](C)[C@@H](NC(=O)[C@H](NC(=O)[C@@H](Cc1c[nH]cn1)NC(=O)[C@@H](Cc1c[nH]cn1)NC(C)=O)[C@H](C)O)C(=O)N[C@@H](C(=O)N[C@H](CCCCN)C(N)=O)C(C)C) [ZP-0179] | 0.6 | -0.6 | 30.4
8 | Ac-[dH][dH][dT][dE][dV][dY]-NH2 (SMILES CC(=O)N[C@H](Cc1c[nH]cn1)C(=O)N[C@H](Cc1c[nH]cn1)C(=O)N[C@@H](C(=O)N[C@H](CCC(=O)O)C(=O)N[C@@H](C(=O)N[C@H](Cc1ccc(O)cc1)C(N)=O)C(C)C)[C@H](C)O) [ZP-0193] | 8.7 | -15.8 | 31.4

Now from value to binder:

Row | % decrease in ThT fluorescence [%] | % decrease in rate of aggregation [%] | % increase in Lag phase [%] | Binder
9 | 25.6 | 12.9 | 29.4 | Ac-[dE][dK][dY][dS][dV][dL][dI]-NH2 (SMILES CC[C@@H](C)[C@@H](NC(=O)[C@@H](CC(C)C)NC(=O)[C@H](NC(=O)[C@@H](CO)NC(=O)[C@@H](Cc1ccc(O)cc1)NC(=O)[C@@H](CCCCN)NC(=O)[C@@H](CCC(=O)O)NC(C)=O)C(C)C)C(N)=O) [ZP-0213]
10 | 53.5 | 54.5 | -28.8 | Ac-[dQ][dY][dK][dV][dL][dI]-NH2 (SMILES CC[C@@H](C)[C@@H](NC(=O)[C@@H](CC(C)C)NC(=O)[C@H](NC(=O)[C@@H](CCCCN)NC(=O)[C@@H](Cc1ccc(O)cc1)NC(=O)[C@@H](CCC(N)=O)NC(C)=O)C(C)C)C(N)=O) [ZP-0202]
11 | 5.5 | 3.6 | 29.7 | Ac-[dQ][dP][dS][dV][dL][dI]-NH2 (SMILES CC[C@@H](C)[C@@H](NC(=O)[C@@H](CC(C)C)NC(=O)[C@H](NC(=O)[C@@H](CO)NC(=O)[C@H]1CCCN1C(=O)[C@@H](CCC(N)=O)NC(C)=O)C(C)C)C(N)=O) [ZP-0207]
12 | 1.4 | -5.6 | 23.6 | Ac-[dQ][dY][dS][dV][dP][dI]-NH2 (SMILES CC[C@@H](C)[C@@H](NC(=O)[C@H]1CCCN1C(=O)[C@H](NC(=O)[C@@H](CO)NC(=O)[C@@H](Cc1ccc(O)cc1)NC(=O)[C@@H](CCC(N)=O)NC(C)=O)C(C)C)C(N)=O) [ZP-0204]
13 | 51.1 | 44.9 | -14.4 | Ac-[dR][dY][dS][dV][dL][dI]-NH2 (SMILES CC[C@@H](C)[C@@H](NC(=O)[C@@H](CC(C)C)NC(=O)[C@H](NC(=O)[C@@H](CO)NC(=O)[C@@H](Cc1ccc(O)cc1)NC(=O)[C@@H](CCCNC(=N)N)NC(C)=O)C(C)C)C(N)=O) [ZP-0212]
14 | 3.3 | 8.4 | 25.9 | Ac-[dQ][dY][dP][dV][dL][dI]-NH2 (SMILES CC[C@@H](C)[C@@H](NC(=O)[C@@H](CC(C)C)NC(=O)[C@H](NC(=O)[C@H]1CCCN1C(=O)[C@@H](Cc1ccc(O)cc1)NC(=O)[C@@H](CCC(N)=O)NC(C)=O)C(C)C)C(N)=O) [ZP-0206]
15 | 20.4 | 4.8 | -12.6 | Ac-[dD][dR][dY][dS][dV][dL][dI]-NH2 (SMILES CC[C@@H](C)[C@@H](NC(=O)[C@@H](CC(C)C)NC(=O)[C@H](NC(=O)[C@@H](CO)NC(=O)[C@@H](Cc1ccc(O)cc1)NC(=O)[C@@H](CCCNC(=N)N)NC(=O)[C@@H](CC(=O)O)NC(C)=O)C(C)C)C(N)=O) [ZP-0214]
16 | 16.6 | -11.9 | 30.6 | Ac-[dQ][dY][dS][dP][dL][dI]-NH2 (SMILES CC[C@@H](C)[C@@H](NC(=O)[C@@H](CC(C)C)NC(=O)[C@H]1CCCN1C(=O)[C@@H](CO)NC(=O)[C@@H](Cc1ccc(O)cc1)NC(=O)[C@@H](CCC(N)=O)NC(C)=O)C(N)=O) [ZP-0205]
